Data on 30 sequences can be found in the supplement of paper PMC9233669.

Fewer inactive variants are shown than the library holds.

The data set has as its system biotinyl-Phe-oxazolone. In words: self-aminoacylation, catalytic enhancement (BFO) (fold over background); higher = more active; k-Seq, kA / k0A0; sequences stand for … in GGGAAUGGAUCCACAUCUACGAAUUC…UUCACUGCAGACUUGACGAAGCUG
Summed up:
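Mutagenized RNA pools (0.43 μM; 21-nt variable region) were treated with 2–1250 μM of each biotinyl-aminoacyl-oxazolone. Conditions were 50 μL HEPES/NaCl/KCl/MgCl2/CaCl2 buffer, 5% acetonitrile, pH 6.9–7.0, room temperature, 90 minutes. Catalytic enhancement, the median kA relative to the uncatalyzed rate, was derived from streptavidin capture, qPCR and Illumina sequencing.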
For the sequence “AAGUUUGCUCAUCGUCGCAAG [Fam3.1 aminoacylation ribozyme variant]”, the self-aminoacylation amounted to 3.33.
On to “AUUCAUCUAGGUCAUCGGCUG [Fam2.2 aminoacylation ribozyme variant]”, for which the self-aminoacylation amounted to 4.5.
In the case of “AAGUUUACUAAUAGGCGCAAG [Fam3.1 aminoacylation ribozyme variant]” it was 2.02.
The same measure for “UAGUUUGCUAAUAGUCUCAAG [Fam3.1 aminoacylation ribozyme variant]”: 3.9.
The same measure for “CUACGUCAACCAAUCGGUCUG [Fam1A.1 aminoacylation ribozyme variant]”: 3.4; for “AAGUAGGCUAAUAGUCGCAAG [Fam3.1 aminoacylation ribozyme variant]”: 3.24; for “CCACACUUCACGCAUUCGGUC [Fam1B.1 aminoacylation ribozyme variant]”: 2.45.
Turning to “AUUCACCUAGGACAUCGUGUG [Fam2.2 aminoacylation ribozyme variant]”, the self-aminoacylation was 3.71.
In the case of “AAGUUUGCUAAUAGUAGCAAA [Fam3.1 aminoacylation ribozyme variant]” it was 2.93; in that of “CUACUUCAAACAAUCACUCUG [Fam1A.1 aminoacylation ribozyme variant]”, 2.98; in that of “AUUACCCUGGUCAACGUGUGA [Fam2.1 aminoacylation ribozyme variant]”, 4.08.
The same measure for “AAGUUUUCUAAUUGUCGCAAG [Fam3.1 aminoacylation ribozyme variant]”: 2.33; for “CAACUGCAAACAAUCGGUCUG [Fam1A.1 aminoacylation ribozyme variant]”: 4.06.
As for “AUUCACCUAGGUCAUUGGUUG [Fam2.2 aminoacylation ribozyme variant]”, the self-aminoacylation turned out to be 2.3.
The same measure for “AUUACCCUGGUCGUCGAGGGA [Fam2.1 aminoacylation ribozyme variant]”: 6.85; for “AAGUUUGCGAAUAGUGGCAAG [Fam3.1 aminoacylation ribozyme variant]”: 2.12.
The same measure for “AUUCACCUAGGUCACAGGGUG [Fam2.2 aminoacylation ribozyme variant]”: 5.68; for “UAGUUUGCUAAUAGUCGCAUG [Fam3.1 aminoacylation ribozyme variant]”: 3.23; for “AUUCACCUAGGUCGUCGGUUG [Fam2.2 aminoacylation ribozyme variant]”: 4.19.
The same measure for “AUUCAGCUAGGUCAUCGUGUG [Fam2.2 aminoacylation ribozyme variant]”: 3.57.
For the sequence “AAUUUUGCUAAGAGUCGCAAG [Fam3.1 aminoacylation ribozyme variant]”, the self-aminoacylation is 2.23.
The same measure for “AAGUUUGUUAAUAGUCGCAAG [Fam3.1 aminoacylation ribozyme variant]”: 2.01; for “AAGUUUGCUUAUAGUCGCAGG [Fam3.1 aminoacylation ribozyme variant]”: 2.26.
The same measure for “CGACUUCAGACAAUCGGUCUG [Fam1A.1 aminoacylation ribozyme variant]”: 3.95; for “AAGUUCGCUGAUAGUCGCAAG [Fam3.1 aminoacylation ribozyme variant]”: 5.75.
For the sequence “AUUCACCGAGGUCAUCGUGUG [Fam2.2 aminoacylation ribozyme variant]”, the self-aminoacylation was 6.45.
As for “AAGUCUGCUAUUAGUCGCAAG [Fam3.1 aminoacylation ribozyme variant]”, the self-aminoacylation was found to be 4.82.
In the case of “AAGUUAGCUAAGAGUCGCAAG [Fam3.1 aminoacylation ribozyme variant]” it was 2.38.
The same measure for “AUCCACCUAGGUCAUCGUGUG [Fam2.2 aminoacylation ribozyme variant]”: 3.96.
In the case of “AAGUUUGCUAAUCGUCGCAAG [Fam3.1 aminoacylation ribozyme variant]” it was 3.12.
